Kd data for 16 sequences are collected here from the Immune Epitope Database (IEDB).

Assay [1] deals with HLA-A*26:01. The assay can be described thus: IEDB peptide-MHC binding, purified MHC/competitive/radioactivity; filed as Kd, often an IC50 or EC50 that approximates it; ≥ and ≤ were set here for values at or beyond the usual limits of such assays.
The target in another assay is HLA-A*30:02. The description is as above.
In another assay the target is HLA-A*24:02. The assay is described as above.
Assay [2] deals with HLA-A*01:01. The description is as above.
The target of another assay is HLA-A*29:02. The assay is described as above.
Another assay deals with HLA-A*23:01. Described as above.
Assay [3] addresses HLA-B*15:01. Nature of the assay: IEDB peptide-MHC binding, purified MHC/competitive/fluorescence; filed as Kd, often an IC50 or EC50 that approximates it; ≥ and ≤ were set here for values at or beyond the usual limits of such assays.
The target in assay [4] is HLA-B*40:01. The assay can be described thus: IEDB peptide-MHC binding, purified MHC/competitive/radioactivity; filed as Kd, often an IC50 or EC50 that approximates it; ≥ and ≤ were set here for values at or beyond the usual limits of such assays.
In another assay the target is HLA-B*44:03. Described as above. The following applies: source organism: Dengue virus 1 Brazil/97-11/1997.
Another assay concerns the target HLA-B*44:02. Nature of the assay: IEDB peptide-MHC binding, purified MHC/direct/fluorescence; filed as Kd, often an IC50 or EC50 that approximates it; ≥ and ≤ were set here for values at or beyond the usual limits of such assays.
Assay [5] has as its target HLA-B*40:01. The description is as above.
For assay [6], the target named is HLA-A*26:01. The assay is described as above. The following applies: source organism: Giardia lamblia ATCC 50803.
For another assay, the target named is HLA-A*69:01. The description is as above. The following applies: source organism: Giardia lamblia ATCC 50803.
For a further assay, the target named is HLA-A*03:01. The assay is described as above. The following applies: source organism: Giardia lamblia ATCC 50803.
For assay [7], the target named is HLA-B*15:01. The assay is described as above. The following applies: source organism: Giardia lamblia ATCC 50803.
The next assay concerns the target HLA-B*27:05. Described as above. The following applies: source organism: Giardia lamblia ATCC 50803.
A further assay deals with HLA-A*31:01. The assay is described as above. The following applies: source organism: Giardia lamblia ATCC 50803.
In another assay the target is HLA-B*08:01. The assay is described as above. The following applies: source organism: Giardia lamblia ATCC 50803.
For another assay, the target named is HLA-A*02:01. The description is as above. The following applies: source organism: Giardia lamblia ATCC 50803.
The target of a further assay is HLA-A*24:03. The description is as above. The following applies: source organism: Giardia lamblia ATCC 50803.
The target in assay [8] is HLA-A*01:01. The description is as above. The following applies: source organism: Giardia lamblia ATCC 50803.
A further assay deals with HLA-A*11:01. The assay is described as above. The following applies: source organism: Giardia lamblia ATCC 50803.
In a further assay the target is HLA-B*58:01. The assay is described as above. The following applies: source organism: Giardia lamblia ATCC 50803.
The mark [9] stands for this setting: source organism: SARS coronavirus Tor2.
Where [10] appears, read: source organism: Dengue virus 2 Jamaica/1409/1983.
[11] abbreviates: source organism: Lassa virus Josiah.
Setting [12] is: source organism: Dengue virus 1 Brazil/97-11/1997.
[13] abbreviates: source organism: Influenza A virus (A/egret/Hong Kong/757.3/2002(H5N1)).
Where [14] appears, read: source organism: Giardia lamblia ATCC 50803.

With VFNNYMPYVF, the Kd is no less than 21.6 µM in the assay with HLA-A*26:01 [1] (setting [9]); 7.11 µM with HLA-A*30:02 (setting [9]); 0.0112 µM in the assay with HLA-A*24:02 (setting [9]); no less than 20.6 µM with HLA-A*01:01 [2] (setting [9]); 0.00922 µM with HLA-A*29:02 (setting [9]); 0.00832 µM in the assay with HLA-A*23:01 (setting [9]).
As to IGAGICASY, the equilibrium dissociation constant (Kd) in the assay with HLA-A*26:01 [1] (setting [9]) was 6.65 µM; with HLA-A*30:02 (setting [9]), 0.00118 µM; with HLA-A*24:02 (setting [9]), no less than 60 µM; with HLA-A*01:01 [2] (setting [9]) it was no less than 47.8 µM; with HLA-A*29:02 (setting [9]) it was 0.0199 µM; with HLA-A*23:01 (setting [9]), no less than 77.8 µM.
Turning to RKIKAITSF, the equilibrium dissociation constant (Kd) with HLA-B*15:01 [3] (source organism: Bacillus cereus G9241) is 1.88 µM.
GEEVQVLAL: the Kd with HLA-B*40:01 [4] (setting [10]) was determined as 0.00309 µM.
With FFASFYYIW, the equilibrium dissociation constant (Kd) was no less than 26.2 µM with HLA-A*26:01 [1] (setting [9]); no less than 67.1 µM in the assay with HLA-A*30:02 (setting [9]); 0.0209 µM with HLA-A*24:02 (setting [9]); no less than 37.6 µM in the assay with HLA-A*01:01 [2] (setting [9]); 0.0945 µM with HLA-A*29:02 (setting [9]); 0.176 µM in the assay with HLA-A*23:01 (setting [9]).
For NAAISDYDYY, the equilibrium dissociation constant (Kd) in the assay with HLA-A*26:01 [1] (setting [9]) is 1.64 µM; with HLA-A*30:02 (setting [9]), 0.274 µM; with HLA-A*24:02 (setting [9]), no less than 70.3 µM; with HLA-A*01:01 [2] (setting [9]), 0.0124 µM; with HLA-A*29:02 (setting [9]), 0.688 µM; with HLA-A*23:01 (setting [9]), no less than 70 µM.
For the sequence PEDPVEIALY, the Kd with HLA-A*26:01 [1] (setting [11]) was no less than 69.7 µM; with HLA-A*30:02 (setting [11]) it was 0.961 µM; with HLA-A*24:02 (setting [11]), no less than 70.3 µM; with HLA-A*01:01 [2] (setting [11]), no less than 34.4 µM; in the assay with HLA-A*29:02 (setting [11]) it was 15 µM; with HLA-A*23:01 (setting [11]) it was no less than 70 µM.
Turning to IENTTANISL, the Kd with HLA-B*40:01 [4] (setting [12]) was determined as 0.00315 µM.
GEVDSFSLGI: the equilibrium dissociation constant (Kd) is 0.0194 µM with HLA-B*44:03 and 0.0567 µM with HLA-B*40:01 [4] (setting [12]).
The sequence AEVRPVVSY came in with a Kd in the assay with HLA-B*15:01 [3] (source organism: Bacillus anthracis str. A0488) of 0.0735 µM.
As for RYYDGNIYDL, the dissociation constant (Kd) with HLA-A*26:01 [1] (source organism: Variola virus) was no less than 69.7 µM; with HLA-A*30:02 (source organism: Variola virus), 0.0152 µM; with HLA-A*24:02 (source organism: Variola virus), 0.0879 µM; with HLA-A*01:01 [2] (source organism: Variola virus), 2.61 µM; with HLA-A*29:02 (source organism: Variola virus) it was no less than 61.8 µM; in the assay with HLA-A*23:01 (source organism: Variola virus), 0.0135 µM.
Turning to SCDFNGGKI, the Kd in the assay with HLA-A*26:01 [1] (setting [11]) was no less than 77.9 µM; with HLA-A*30:02 (setting [11]), no less than 76.9 µM; with HLA-A*24:02 (setting [11]), no less than 77.5 µM; with HLA-A*01:01 [2] (setting [11]), no less than 23.2 µM; with HLA-A*29:02 (setting [11]) it was no less than 78.9 µM; with HLA-A*23:01 (setting [11]), no less than 77.7 µM.
Consider KEFAAGRKSL, for which the dissociation constant (Kd) in the assay with HLA-B*40:01 [4] (setting [10]) worked out at 0.00963 µM.
WEGGHDLTV: the Kd in the assay with HLA-B*40:01 [4] (source organism: Dengue virus 4 Philippines/H241/1956) stood at 1.85 µM.
HEGYEEFTM: the dissociation constant (Kd) with HLA-B*44:02 (setting [13]) is no less than 20 µM; in the assay with HLA-B*40:01 [5] (setting [13]), 0.0119 µM.
With PPQATAKYL, the dissociation constant Kd with HLA-A*26:01 [6], with HLA-A*69:01, in the assay with HLA-A*03:01, with HLA-B*15:01 [7], with HLA-B*27:05 and with HLA-A*31:01 was no less than 20 µM throughout. The Kd in the assay with HLA-B*08:01 was no less than 20 µM; in the assay with HLA-A*02:01, no less than 20 µM; with HLA-A*24:03, 9.66 µM; with HLA-A*01:01 [8], no less than 20 µM; with HLA-B*44:02 (setting [14]) it was no less than 20 µM; with HLA-A*11:01, no less than 20 µM. Also, the Kd with HLA-B*40:01 [5] (setting [14]) and with HLA-B*58:01 was no less than 20 µM each time.
